These results are taken from patent US20240360242A1 (KISOJI BIOTECHNOLOGY, published 2024).

First the molecules themselves.
T1: HEK-TROP2 Δ27-66 (human, UniProt P09758)
T1 construct: deletion of residues 27-66, transiently expressed on HEK cells
T1 sequence (membrane protein on transfected HEK cells, looked up): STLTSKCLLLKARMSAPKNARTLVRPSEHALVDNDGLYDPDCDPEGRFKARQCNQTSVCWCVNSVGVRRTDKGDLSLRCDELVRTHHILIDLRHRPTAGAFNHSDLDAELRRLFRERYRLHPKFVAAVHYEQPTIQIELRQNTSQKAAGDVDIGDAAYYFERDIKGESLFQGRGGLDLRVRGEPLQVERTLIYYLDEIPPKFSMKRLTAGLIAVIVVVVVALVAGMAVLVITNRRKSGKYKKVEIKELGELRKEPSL

T2: HEK-TROP2 Δ27-146 (human, UniProt P09758)
T2 construct: deletion of residues 27-146, transiently expressed on HEK cells
T2 sequence (membrane protein on transfected HEK cells, looked up): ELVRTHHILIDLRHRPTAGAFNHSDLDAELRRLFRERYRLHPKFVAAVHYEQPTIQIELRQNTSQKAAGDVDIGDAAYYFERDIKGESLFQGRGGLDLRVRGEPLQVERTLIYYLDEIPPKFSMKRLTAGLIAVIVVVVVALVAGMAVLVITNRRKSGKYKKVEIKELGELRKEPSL

T3: recombinant human TROP2 extracellular domain (aa 1-274) comprising His tag (human, UniProt P09758 27-274)
T3 construct: Used here for all assays on recombinant human TROP2 (ELISA, immunoblot, SPR, crystal), although only some of them name the catalogue number; also called human recombinant TROP2; recombinant human TROP2 protein; not shown: His tag
T3 sequence: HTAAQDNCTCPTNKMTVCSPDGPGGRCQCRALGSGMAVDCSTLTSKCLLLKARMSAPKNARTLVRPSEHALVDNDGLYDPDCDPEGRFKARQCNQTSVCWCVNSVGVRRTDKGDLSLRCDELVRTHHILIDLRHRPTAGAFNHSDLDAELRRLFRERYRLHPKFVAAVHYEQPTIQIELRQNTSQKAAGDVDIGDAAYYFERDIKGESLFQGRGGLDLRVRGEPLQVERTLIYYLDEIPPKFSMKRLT

T4: recombinant cynomolgus/Rhesus TROP2 full-length extracellular domain (cynomolgus/Rhesus, UniProt P09758 27-274 (human entry))
T4 construct: also called cynomolgus TROP2
T4 chain: T3 sequence with M36V, S67N, I204V

B1: KD002 (antibody, human IgG1, V domains shown)
VH: QVQLQESGGGMVQVGGSLRLSCAASGFPFSSADMSWVRQAPGKGPEWVSYINADGSKTYYPDSVKGRFTISRDNAKNTLYLLMNNLKPEDTALYRCARAKLTDTHYVEDYWGQGTQVTVSS
notes: also called anti-TROP2 sdAb KD002
B2: KD003 (antibody, human IgG1, V domains shown)
VH: B1 VH with V14P, P28T, S31N, A32Y, D54G, K57N, Y59D, T78M
notes: also called anti-TROP2 sdAb KD003
B3: KD001 (antibody, human IgG1, V domains shown)
VH: QVQLQESGGGMVHPGGSLRLSCAASGFTFSGSDMSWVRQAPGKGPEWVSYITSGGTTYYPDSVKGRFTISRDNAKNTLYLQMNSLTPDDTALYRCAKARLTDSHYVEDAWGQGTQVTVSS
notes: also called anti-TROP2 sdAb KD001
B4: KD004 (antibody, human IgG1, V domains shown)
VH: B3 VH with M11L, H13Q, G16R, S53G, G54S, I69T, T77M, T86K
notes: also called anti-TROP2 sdAb KD004
B5: KD005 (antibody, human IgG1, V domains shown)
VH: B3 VH with M11L, H13E, P14A, T86K, A98S
notes: also called anti-TROP2 sdAb KD005

As a reminder, the Kd is the free concentration of one partner at which half of the binding sites on the other are occupied at equilibrium, for simple one-to-one binding. In general, EC50 (read off the curve) refers to the concentration that produces a half-maximal response.

Where a chain is given by its changes, count along the chain named.

In the first assay the target is T1, HEK-TROP2 Δ27-66. The assay is described as follows: flow cytometry, 100 nM antibody, transiently transfected HEK cells, APC anti-human Fc. A digest of the protocol: (§1)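 HEK parental cells transiently transfected (lipofectamine) with human TROP2 truncation mutants, harvested 24 h later and Fc-blocked 10 min at RT. Anti-TROP2 sdAbs at 100 nM bound 30 min on ice, then detected with APC anti-human Fc (30 min) and 7-AAD added for viability.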
(In general: Flow cytometry measures light scatter and fluorescence of single cells or particles in a stream.)
Consider B1, for which the binding result is listed as “no binding (tested: 100 nM)”.
Still for that read-out and setting: the value for B2 was “no binding (tested: 100 nM)”.
Regarding B3, the binding result is given as “no binding (tested: 100 nM)”.
As to B4, the binding result is reported as “no binding (tested: 100 nM)”.
On the same count and under the same terms, then B5, with “no binding (tested: 100 nM)”.

The target in the next assay is T2, HEK-TROP2 Δ27-146. The description is as above. In outline: as §1
As to B1, the binding result was “no binding (tested: 100 nM)”.
On to B2, for which the binding result is “no binding (tested: 100 nM)”.
The same measure, in the same setting: the value for B3 was “no binding (tested: 100 nM)”; that for B4 was “no binding (tested: 100 nM)”.
On to B5, for which the binding result is given as “no binding (tested: 100 nM)”.

Another assay deals with T3, recombinant human TROP2 extracellular …. The assay can be described thus: SPR. In general terms: In SPR one partner is held on a chip, and binding of the other changes the refractive index at the surface.
Consider B1, for which the Kd is 0.0432 nM.
Same read-out and setting: the value for B2 was 0.0893 nM; that for B3 was 0.0826 nM.
The same measure, in the same setting: the value for B4 was 0.0294 nM.
As to B5, the equilibrium dissociation constant (Kd) was found to be 0.0268 nM.

For another assay, the target named is T4, recombinant cynomolgus/Rhesus TROP2 …. The assay is described as follows: SPR.
On to B1, for which the equilibrium dissociation constant (Kd) turned out to be 0.0811 nM.
Take B2: the Kd is 0.169 nM.
Still for that read-out and setting: then B3, with 0.0257 nM; and B4, with 0.0358 nM; and B5, with 0.0597 nM.

A further assay has as its target T3, recombinant human TROP2 extracellular …. The assay can be described thus: ELISA on coated recombinant TROP2 ECD, 1:5 dilutions from 1000 nM, RLU. As for the experimental part: (§2) TROP2 full-length extracellular domain recombinant proteins including cynomolgus/Rhesus (FIG. 12A), human (FIG. 12B), mouse (FIG. 12C), and rat (FIG. 12D) were coated on 96-well ELISA plates at the concentration of 1 μg/mL. Plates were covered with adhesive plate cover and stored at 4° C. overnight. The next day, plates were washed 3× with washing buffer (PBS with 0.1% Tween™ 20). Plates were blocked with 2% fat-free BSA in washing buffer for 1 hour at 37° C. During the incubation time, the anti-TROP2 sdAbs were diluted in the blocking buffer to the indicated concentrations. In brief, the anti-TROP2 sdAbs starting concentration was 1000 nM and serial diluted 1 in 5 to 0.02048 pM. After blocking, the blocking buffer was removed from the wells and 100 μL of anti-TROP2 sdAbs dilutions were transferred to the corresponding wells. Plates were covered with adhesive plates cover and incubated at 37° C. for 1 hour. During the primary antibody incubation, the secondary antibody (goat anti-human IgG, HRP conjugated) was diluted 1 in 5000 with the blocking buffer. Plates were washed 3× with blocking buffer, followed by secondary antibody incubation for another 1 hour at 37° C. After the secondary antibody incubation, plates were washed 3× with washing buffer and added with 100 μL of ELISA chemiluminescent substrate (Thermofisher). The luminescence signal was detected by SpectraMax i3x at […].
B1: the half-maximal effective concentration (EC50 (read off the curve)) was roughly 0.2 nM.
On the same count and under the same terms, the value for B2 was roughly 0.2 nM; that for B3 was roughly 0.2 nM.
Same read-out and setting: the value for B4 was roughly 0.2 nM; that for B5 was roughly 0.2 nM.

The next assay has as its target T4, recombinant cynomolgus/Rhesus TROP2 …. The assay is described as above. As for the experimental part:
as §2
As for B1, the “EC50 (read off the curve)” value is roughly 0.2 nM.
Take B2: the “EC50 (read off the curve)” value was roughly 0.2 nM.
The same measure, in the same setting: then B3, with roughly 0.2 nM; and B4, with roughly 0.2 nM; and B5, with roughly 0.2 nM.
